In patent publication US20230399361A1, “MACROCYCLIC PEPTIDES” (UNIVERSITY OF NOTRE DAME DU LAC, priority 2022, published 2023):
*1 amine or outer side, *2 acyl side, *3 side chain or, on linkers, in order; H or OH if unused. Where a SMILES comes first, the peptide text is derived from it. Primed or numbered codes have the meaning given here. [ ]: non-standard residue; d: D form. aTyr = Tyr with an NH2 on the backbone amide nitrogen (N-amino residue), NN([C@@H](Cc1ccc(O[*:3])cc1)C(=O)[*:2])[*:1]; aIle″ = Ile with an NH2 on the backbone amide nitrogen (N-amino residue), CC[C@H](C)[C@@H](C(=O)[*:2])N(N)[*:1]; aVal″ = Val with an NH2 on the backbone amide nitrogen (N-amino residue), CC(C)[C@@H](C(=O)[*:2])N(N)[*:1]; N(NH2)Lys = NCCCC[C@H](NN)C(=O)O

What was measured:
[1] = Human serum stability assay; details: after 24 h, 37° C., HPLC
Experimental: Human Serum Stability Assay. The stability of NAPs in 25% human serum (MilliporeSigma) was assessed by HPLC. The reaction was started by adding NAPs at a final concentration of 500 μM in pre-warmed serum. The mixture was incubated at 37° C. for 24 h. A 100 μL aliquot of the reaction mixture was taken out at 0, 1, 4, and 24 h and was mixed with an equal volume of 20% trichloroacetic acid and incubated at 4° C. for 15 min to precipitate serum proteins. After centrifugation at 12,000 rpm for 10 min, the supernatant was collected and mixed with an internal standard (1 mg/mL Cbz-Tyr-OH dissolved in MeCN) and stored at −20° C. Samples were then analyzed by LC-MS, and the percentage of peptide remaining was calculated by integrating peaks.

AcPHF6 = biological target: T1, AcPHF6 (Homo sapiens, UniProt P10636); details: Chem. Eur. J. 2017, 23, 9618; cited from earlier work
T1 construct: AcPHF6; Ac-Val-Gln-Ile-Val-Tyr-Lys-NH2; 790.4833

tauP301L [2] = biological target: T2, tauP301L (Homo sapiens, UniProt P10636, P618L); test: ThT fluorescence aggregation assay of recombinant tauP301L; type: biochemical; details: 20 μM NAP (2-fold molar excess), 10 μM tauP301L, heparin, 48 h
T2 construct: we expressed and purified full-length tau featuring a P301L mutation; His6 (N); made in house; host or cells: E. coli BL21 (DE3)
From the text: (§1) NAP Tau Mimics Inhibit Tau Fibrilization In Vitro. We chose thioflavin T (ThT), an amyloid specific fluorescent dye that binds to β-sheet assemblies, to first evaluate the effect of NAPs on recombinant tau aggregation. For these studies, we expressed and purified full-length tau featuring a P301L mutation frequently observed in patients with frontotemporal dementia and Parkinsonism linked to chromosome 17 (FTDP-17). This missense mutation leads to local structure destabilization around the amyloid-forming region resulting in faster aggregation. Recombinant tauP301L aggregated in the presence of equimolar heparin sulfate (t1/2=6.5±0.4 h) starting with a very short 0.5 h lag phase, followed by a 24 h exponential growth phase. […] Compounds 2 and 4 are mono- and diaminated hexapeptides derived from the R2 PHF6* aggregation-prone sequence, whereas compounds 5, 6, 12, and 13 are all derived from the R3 PHF6 sequence. Several other NAPs had no effect on endpoint ThT fluorescence or lacked consistent inhibition across repeated experiments. […] NaOAc buffer, as evidenced by intense ThT fluorescence after 48 h (FIG. 1B).
Inhibition of full-length tau aggregation by mxyl-NAPs in a ThT assay. […] TauP301L ([…]) aggregated upon incubation with heparin over the course of 2 days, leading to high ThT fluorescence. […] We also synthesized linear and scrambled controls corresponding to each of the NAP inhibitors.
ThT Fluorescence Aggregation Assay. Recombinant tauP301L (10 μM final concentration) and NAP inhibitors (20 μM final concentration) were mixed in an aggregation buffer (100 mM sodium acetate, 10 μM ThT, 10 μM heparin, 2 mM DTT, and 0.5% DMSO, pH: 7.4) in a 96-well clear bottom black plate with a final reaction volume of 200 μL. The plate was then sealed with a clear sealing film and allowed to incubate at 37° C. with continuous shaking in a Biotek Synergy H1 microplate reader. An automated method was used to carry out ThT fluorescence measurements at an excitation wavelength of 444 nm and an emission wavelength of 485 nm at an interval of every 5 min for 48 h. Experiments were carried out in technical replicates on at least 2 different days. Every experiment included control wells that lacked tauP301L, heparin, or NAPs. The average signal from control wells lacking tau was used to subtract the background fluorescence, and the average of the first and last 10 data points of tau+heparin (no inhibitor) wells, after blank subtraction, was used to normalize the data. All data plots were generated with SigmaPlot.

[3] = Self-aggregation of peptides alone by ThT fluorescence; type: physicochemical; details: incubated alone in aq. NaOAc buffer, 48 h
From the text: as §1
Design and synthesis of aggregation-resistant backbone-aminated derivatives of mxyl-AD. The data above support the hypothesis that mxyl-AD mimetic macrocycle can engage in native-like hydrophobic cross-b interactions as well as edge-to-edge H-bonds along the fibril axis. We next sought to employ mxyl-AD as a template for the design of tau seeding inhibitors that could potentially cap fibril growth and block propagation. This required us to incorporate a chemical modification onto mxyl-AD that would preclude its ability to self-assemble without disrupting its capacity to adopt the conformation required to bind tau. We therefore designed two backbone N-amino peptide (NAP) derivatives of our tau mimic, mxyl-NAP1 and mxyl-NAP2 (Scheme 1). Each of these analogues features a backbone amide substitution that precludes canonical b-sheet H-bonding along one edge of the macrocycle, while leaving the other edge intact to engage the tau protein. […] Both mxyl-NAP1 and mxyl-NAP2, which feature a single backbone N-amino group within the amyloidogenic PHF6 module, were prepared on solid support starting from Fmoc-protected N-amino dipeptides.

tauP301L [4] = biological target: T2, tauP301L; test: Transmission electron microscopy of heparin-induced tauP301L fibrils; type: biochemical; details: 10 μM tauP301L + heparin, 20 μM NAP (2-fold molar excess), 96 h
Experimental: This is consistent with previous reports showing that the endpoint ThT fluorescence and fibrilization lag time for full-length tau are particularly resistant to perturbation by inhibitors. […] To confirm the effect of NAPs on the growth of mature tau fibrils, we used transmission electron microscopy (TEM) to visualize the morphology and maturity of fibrillar species. Heparin-induced tauP301L fibrils were allowed to grow over 96 h in the presence or absence of inhibitors. Untreated tauP301L afforded large, helical, and amyloid-like filamentous fibrils.
Inhibition of full-length tau fibrilization by mxyl-NAPs in TEM. To confirm the results from ThT assays, we used TEM to visualize tauP301L fibrils in the absence or presence of synthesized NAPs. As expected, heparin-induced tauP301L formed dense networks of mature fibrils (FIG. 8).
Transmission Electron Microscopy. For analyzing fibrils by TEM, aggregation was carried out under conditions similar to the assay performed above but with ThT excluded and a final reaction volume of 100 μL. Samples were incubated in a microcentrifuge tube for 4 days at 37° C. with a mixing speed of 100 rpm. A 10 μL aliquot of the sample was then applied to 400-meshed formvar-/carbon-coated copper grids and negative-stained with 2% uranyl acetate. Micrographs were obtained on a JEOL 2011 transmission electron microscope at 200 kV.

[5] = biological target: Human tauP301L (0N4R) with an N-terminal His6 tag (human), P10636; test: cell-based or functional assay
Sequence of Human tauP301L (0N4R) with an N-terminal His6 tag (human), P10636 (P10636 other isoform, or with tags, fused parts or gaps): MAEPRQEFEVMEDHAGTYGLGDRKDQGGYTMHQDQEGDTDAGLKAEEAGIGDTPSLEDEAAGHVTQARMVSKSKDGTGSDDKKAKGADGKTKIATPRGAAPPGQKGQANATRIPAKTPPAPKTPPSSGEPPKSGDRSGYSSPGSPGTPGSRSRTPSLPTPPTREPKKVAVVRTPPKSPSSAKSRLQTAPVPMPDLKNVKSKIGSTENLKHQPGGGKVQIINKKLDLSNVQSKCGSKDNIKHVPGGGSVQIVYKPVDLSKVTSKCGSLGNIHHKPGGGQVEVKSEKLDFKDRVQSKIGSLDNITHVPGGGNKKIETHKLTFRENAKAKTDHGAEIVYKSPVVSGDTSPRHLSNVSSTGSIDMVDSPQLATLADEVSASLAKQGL

T2 sequence (P10636 1-383 isoform P10636-6 P243L): as the sequence (P10636 other isoform, or with tags, fused parts or gaps) above, with P243L counted along it

CC[C@H](C)[C@H](NC(=O)[C@@H](N)CC(C)C)C(=O)N[C@H](C(=O)N[C@@H](CCCNC(=N)N)C(=O)N[C@@H](CC(C)C)C(=O)N[C@@H](CCC(=O)O)C(=O)N[C@@H](CC(N)=O)C(=O)N[C@H](C(N)=O)[C@@H](C)O)[C@@H](C)O [H-LITRLENT-NH2] (H-LITRLENT-NH2)
intact peptide in 25% human serum [1]: rapidly degraded

Ac-VPIVYK-NH2 [proline-containing analogue of PHF6 from the literature (Segal and co-workers)]
aggregation of AcPHF6 in vitro (AcPHF6): inhibits the aggregation

Ac-Val-Gln-aIle-Ile-Asn-Lys-NH2 (Ac-VQ[aIle″]INK-NH2) [Compound 2]
endpoint ThT fluorescence of tauP301L (tauP301L [2]): significantly reduce
self-aggregation, ThT fluorescence of peptide alone [3]: no such fluorescence
tauP301L fibril morphology by TEM (tauP301L [4]): short, immature rod-like fibrils

Ac-Val-Gln-aIle-Val-Tyr-Lys-NH2 (Ac-VQ[aIle″]VYK-NH2) [Compound 6]
endpoint ThT fluorescence of tauP301L (tauP301L [2]): significantly reduce
self-aggregation, ThT fluorescence of peptide alone [3]: no such fluorescence
tauP301L fibril morphology by TEM (tauP301L [4]): short, immature rod-like fibrils

Ac-aVal-Gln-Ile-Val-Tyr-Lys-NH2 (Ac-[aVal″]QIVYK-NH2) [Compound 5]
endpoint ThT fluorescence of tauP301L (tauP301L [2]): significantly reduce
self-aggregation, ThT fluorescence of peptide alone [3]: no such fluorescence
tauP301L fibril morphology by TEM (tauP301L [4]): short, immature rod-like fibrils

Ac-VQ[aIle″]V[aTyr]K-NH2 [Ac-Val-Gln-aIle-Val-aTyr-Lys-NH2 (12)]
fibril capping IC50 in cells (seeding of tau-RD(LM)-YFP in HEK293 biosensor cells by pre-formed tauP301L fibrils) [5]: 5 µM

Ac-VQI[aVal″]Y[N(NH2)Lys]-NH2 [Ac-Val-Gln-Ile-aVal-Tyr-aLys-NH2 (13)]
fibril capping IC50 in cells (seeding of tau-RD(LM)-YFP in HEK293 biosensor cells by pre-formed tauP301L fibrils) [5]: 5 µM
